In this experiment the target is endogenous ezrin of LLC-PK1 cells (pig (endogenous in LLC-PK1)) (UniProt F1SB42). Briefly: SEC. (In general: In gel filtration, larger molecules generally elute earlier.)

Several values for one entry are separate records, joined by “and”; a condition that tells them apart may be missing. Identical values can stand only once.

With “endogenous ezrin of LLC-PK1 cells (from UniProt F1SB42 1-551) (natural protein)”, the percent of the ezrin of the fraction that is oligomers was 15% and 28%; the percent of the total cellular ezrin found as oligomers in this fraction was 12.3% and 2.6%.
